This test concerns the target T1, human NPY2 receptor (human, UniProt P49146 1-381).
T1 construct: whole, on cells; also called hNPY2-R; hNPY2R
T1 sequence (looked up): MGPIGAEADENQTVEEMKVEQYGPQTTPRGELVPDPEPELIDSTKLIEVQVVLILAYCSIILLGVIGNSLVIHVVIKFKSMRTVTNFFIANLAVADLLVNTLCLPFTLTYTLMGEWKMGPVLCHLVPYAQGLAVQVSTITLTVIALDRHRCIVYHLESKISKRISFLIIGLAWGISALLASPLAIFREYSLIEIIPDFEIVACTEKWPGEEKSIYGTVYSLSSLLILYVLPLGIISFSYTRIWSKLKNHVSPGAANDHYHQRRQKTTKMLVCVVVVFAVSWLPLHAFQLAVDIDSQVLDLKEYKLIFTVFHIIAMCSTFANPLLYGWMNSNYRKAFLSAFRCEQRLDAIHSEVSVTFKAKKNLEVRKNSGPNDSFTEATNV
As to the kind of experiment: RLB: displacement of 125I-PYY(1-36) from hNPY2R membranes.

*1 amine or outer side, *2 acyl side, *3 side chain or, on linkers, in order; H or OH if unused. Side-chain parts run from the residue outwards. The star is where a group is joined. C18 diacid = O=C(O)CCCCCCCCCCCCCCCCC(=O)*; γGlu = O=C(O)[C@H](CCC(=O)[*:2])N[*:1]; Isovaleryl = CC(C)CC(=O)*; Ahx = NCCCCCC(=O)O

B1: Compound 29 (peptide)
peptide: Isovaleryl-APEK([Ahx-γGlu-C18 diacid])PEADSSPEELQRYYVSLRHYYNWLTRQRY-NH2
SMILES: CC(C)CC(=O)N[C@@H](C)C(=O)N1CCC[C@H]1C(=O)N[C@@H](CCC(=O)O)C(=O)N[C@@H](CCCCNC(=O)CCCCCNC(=O)CC[C@H](NC(=O)CCCCCCCCCCCCCCCCC(=O)O)C(=O)O)C(=O)N1CCC[C@H]1C(=O)N[C@@H](CCC(=O)O)C(=O)N[C@@H](C)C(=O)N[C@@H](CC(=O)O)C(=O)N[C@@H](CO)C(=O)N[C@@H](CO)C(=O)N1CCC[C@H]1C(=O)N[C@@H](CCC(=O)O)C(=O)N[C@@H](CCC(=O)O)C(=O)N[C@@H](CC(C)C)C(=O)N[C@@H](CCC(N)=O)C(=O)N[C@@H](CCCNC(=N)N)C(=O)N[C@@H](Cc1ccc(O)cc1)C(=O)N[C@@H](Cc1ccc(O)cc1)C(=O)N[C@H](C(=O)N[C@@H](CO)C(=O)N[C@@H](CC(C)C)C(=O)N[C@@H](CCCNC(=N)N)C(=O)N[C@@H](Cc1c[nH]cn1)C(=O)N[C@@H](Cc1ccc(O)cc1)C(=O)N[C@@H](Cc1ccc(O)cc1)C(=O)N[C@@H](CC(N)=O)C(=O)N[C@@H](Cc1c[nH]c2ccccc12)C(=O)N[C@@H](CC(C)C)C(=O)N[C@H](C(=O)N[C@@H](CCCNC(=N)N)C(=O)N[C@@H](CCC(N)=O)C(=O)N[C@@H](CCCNC(=N)N)C(=O)N[C@@H](Cc1ccc(O)cc1)C(N)=O)[C@@H](C)O)C(C)C
Take B1: the Ki came to 1.36 nM.

B2: Compound 30 (peptide)
peptide: Isovaleryl-APEK([Ahx-γGlu-C18 diacid])PPADATPEELQRYYVSLRHYYNWLTRQRY-NH2
SMILES: CC(C)CC(=O)N[C@@H](C)C(=O)N1CCC[C@H]1C(=O)N[C@@H](CCC(=O)O)C(=O)N[C@@H](CCCCNC(=O)CCCCCNC(=O)CC[C@H](NC(=O)CCCCCCCCCCCCCCCCC(=O)O)C(=O)O)C(=O)N1CCC[C@H]1C(=O)N1CCC[C@H]1C(=O)N[C@@H](C)C(=O)N[C@@H](CC(=O)O)C(=O)N[C@@H](C)C(=O)N[C@H](C(=O)N1CCC[C@H]1C(=O)N[C@@H](CCC(=O)O)C(=O)N[C@@H](CCC(=O)O)C(=O)N[C@@H](CC(C)C)C(=O)N[C@@H](CCC(N)=O)C(=O)N[C@@H](CCCNC(=N)N)C(=O)N[C@@H](Cc1ccc(O)cc1)C(=O)N[C@@H](Cc1ccc(O)cc1)C(=O)N[C@H](C(=O)N[C@@H](CO)C(=O)N[C@@H](CC(C)C)C(=O)N[C@@H](CCCNC(=N)N)C(=O)N[C@@H](Cc1c[nH]cn1)C(=O)N[C@@H](Cc1ccc(O)cc1)C(=O)N[C@@H](Cc1ccc(O)cc1)C(=O)N[C@@H](CC(N)=O)C(=O)N[C@@H](Cc1c[nH]c2ccccc12)C(=O)N[C@@H](CC(C)C)C(=O)N[C@H](C(=O)N[C@@H](CCCNC(=N)N)C(=O)N[C@@H](CCC(N)=O)C(=O)N[C@@H](CCCNC(=N)N)C(=O)N[C@@H](Cc1ccc(O)cc1)C(N)=O)[C@@H](C)O)C(C)C)[C@@H](C)O
In turn, B2 gave a Ki of 0.3 nM.

As a reminder, the Ki is the equilibrium dissociation constant of an inhibitor or competing ligand from its target.

Values taken from patent publication US20260015399A1 (Boehringer Ingelheim, published 2026).
